Laboratory results taken from the nanobody polyreactivity screen of Harvey et al. (2022).

Experiment: yeast display, Sf9 membrane polyspecificity reagent, FACS + sequencing; frameworks hold sequencing errors
In short: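 Sorting gates, low and high (top ~1%), were placed on anti-HA fluorescence to track expression and on streptavidin fluorescence to track reagent binding. A clone's polyreactivity label is taken from the gate it came out of. The reagent was 10% biotinylated, detergent-solubilized Sf9 membrane, applied for 1 hour at 4 °C to galactose-induced yeast display cells.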

Row | Sequence | polyreactivity (PSR sort gate)
1 | QVQLVESGGGLVQAGGSLRLSCAASGSTLYRYAMGWYRQAPGKERELVATIRWSGGSTYYADSVKGRFTISRDNAKNTVYLQMNSLKPEDTAVYYCAKRSSYGSSGRYYYWGQGTQVTVSS | high polyreactivity
2 | QVQLVESGGGLVQAGGSLRLSCAASGITFARYAMGWYRQAPGKARELVAAISRSGGSTYYADSVKGRFTSSRDNAKNTVYLQMNSLKPEDSAVYYCAAGGRVRRNKFDDWGQGTQVTVAS | high polyreactivity
3 | QVQLVESGGGLVQAGGSLRLSCAASGFIFRYYAMGWYRQEPGKERELFAAISSTGGSTSYADSVKGRFTISRDNAKNTVYLQMNSLKPEDTAVYYCAADYWIRRRTYGQLYRPYYYWGQGTQVTVSS | high polyreactivity
4 | QVQLVESGGGLVQAGGSLRLSCAASGGTMLYYAMGWYRQAPRKEMELVAVITSSAGRTYYADSVKGRITISRDNAKITVYLLMNSLKPEDTAVSYCNATGYLVGSISIYDYWGQGTQVTVSS | low polyreactivity
5 | QVQLVESRGGLVQAGGSLLLRCAASGSTITRNAMGWYRQAPGKERELVAAITSGGGTNYADSVKGRFTISRDNAKNTVYLQMNSLKPEDTAVYYCADRYWRFYTKRGYWGQGTQVTVSS | high polyreactivity
6 | QVQLVESGGGLVQAGGSLRLSCAASGRILNYYTMGWYRQAPGKERELVAAISGSDGNTYYADSVKGRFTISRDNAKNTVYLQKNSLKPEDTAVYYCSADLYDEWGQGTQVTVSS | low polyreactivity
7 | QVQLVESGGGLVQAGGSLRLSCAASGFTFDAYTMGWYRQAPGKERELVAAINWSGDTTYYADSVKGRFTISRDNAKNTVYLQMNSLKPEDTAVYYCAAVWWIYGVWFDYWGQGTQVTVSS | high polyreactivity
8 | QVQLVESGGGLVQAGGSLRLSCAPSGRTFVWNAMGWYRQAPVKERELVAAITSGGSTNYADSVKGRFTISRDNAKNTVYLQMNSLKAEDTAVYYCAAYPDYYEDDYWGQGTQVTVSS | low polyreactivity
9 | QVQLVESGGGLVQAGGSLRLSCAASGRTFRHNTMGWYRQAPGKEREFVAVITTSGGSTYYADSVKGRFTISRDNAKNTVYLQMNSMKPEDTAVYYCNAKYHLSRSTYYYWGQGTQVTVSS | high polyreactivity
10 | QVQLVESGGGLVQAGGSLRLSCADSGRIFRYYAMGWYRQAPGKERELVAAISGSGGSTYYADSVKGRFTISRDNSKNTVYLHMNSLKPEDTSVYYCAAAEYLYTLPYGYWGQGTQVTVSS | low polyreactivity
11 | QVQLVESGGGLVQAGGSLRLSCAASGRIFWYNAMGWYRQAPGKERGLVAVISTRGGRTYYADSVKGRFTISRDNAKNTVYLQMNSLKPEDTAVYYCAAEFLNKAVGGVTSIYDSWGQGTQVTVSS | low polyreactivity
12 | QVQLVESGGGLVQAGGSLRLSCAASGRISGINVMGWYRQAPGKERELVAAISRSGARTYYADSVKGRFTISRDNAKNTVYLQMNSLKPEDTAVYYCNAANLKYPKYVQGDYWGQGTQVTVSS | high polyreactivity
13 | QVQLVESGGGLVQAGGSLRLSCAASGFIFWQYAMGWYRQAPGKERELVAAISGRGGRTYYADSVKGRFTISRDNAKNTVYLQMNSLKPEDTAVYYCNKVGPLVGGVKYYYWGQGTQVTVSS | high polyreactivity
14 | QVQLVESGGGLVQAGGSLRLSCAASGRIFTDYAMGWYRQAPGKERELVAAINFSGGSTYYADSVKGRFTISRDNAKNTVYLQMHSLKPEDTAVYYCAAQGYYDDMYYWGQGTQVTESS | high polyreactivity
15 | QVQLVESGGGLDQAGGSLRLSCAASGRTFTRYALCWYRQAPGNVRELVATMTRGARTYYADSVKGRFTISRDNAKNTVYLQMNSLKPVDTAVYYCNAVYSFLSPDQMGYWGQGTQVTVSS | high polyreactivity
16 | QVQLVDSGGGLVQAGGSLRLSCAASGITFYDYTMGWYRQAPGKERELVAAITSSGVSTYYADSVKGRFTISRDNAKNTVYLQMNSLKPEDTAVYYCAADLYEDPNGEDDYWGQGTQVTVSS | low polyreactivity
17 | QVQLVESGGGLVQAGGSLRLSCAASGRIFPLYAMGWYRPAPGKERELVADISVTGTSTYYADSVKGRFTISRDNAKNTVYLQMNSLKPEDTAVYYCAADLWAYGPLWRWSRADYDYWGQGTQVTVSS | low polyreactivity
18 | QDQLVESGGGLVQAGGSLRLSCAASGFTFGSYAMGWYRQAPGKERELVAAISSNGGNTYYADSVKGRFTISRDNAKNTVYLQMNSLKPEDTAVYYCAARYPSGTRKWYGYWGQGTQVTVSS | high polyreactivity
19 | QVHLVESGGGLVQAGGSLRLSCAASGSILTDNAMGWYRQAPGKERELVAAITSSGNTNYADSVKGRFTISRDNAKNTVYLQMNSLKPEDTAVYYCAADSYYKHWTDWLPVGEDYWGQGTEVTVSS | low polyreactivity
20 | QVQLEESGGGLGQAGGSLRLTCAASGSIFDTYTMGWYRQATRIEWELVAAITSGTTTTYADSVKGRFTISRDNGLNTVYLKINSLNPEDTAVYYCGARTSGSFDYWGQGPQVTVSS | low polyreactivity
21 | QVQLVESVGGLVQAGGSLRLSCAASGRIFSYNAMGWYRQAPGKERELVAAITWRGGNTYYADSVKGRFTISRDNAKNTVYLQMNSLKPEDTAVYYCNAVGYSKYYVRTGREFDYWGQGTQVTVSS | high polyreactivity
22 | QVQLVESGGGLVHAGGSLRLSCAASGSIYIFNAMGWYRQAPGKEREFVARIRRDSSTYYADSVKGRFTISRDNAKNTVYLQMNSLKPEDTAVYYCAAKRVYRRVELNSWGQGTQVTVSS | low polyreactivity

Row | Sequence | polyreactivity (PSR sort gate)
23 | QVQLVESGGGLVQAGGSLRLSCAASGFIFDWYTMGWYRQAPGKERELVAAITIGGSTDYADSVKGRFTISRDNAKNTVYLQMNSLKPEDTAVYYCNALWYLSGTWYDYWGQGTQVTVSS | low polyreactivity
24 | QVQLVESGGGLVQAGGSLRLSCAASGRTFSKYAMGWYRQAPGKERELVASITWSGGTTNYADSVKGRFTISRDNAKNTVYLQMNSLKPEDTAVYYCNADGYLAERFFIRLDEYRDYDYWGQGTQVTVSS | low polyreactivity
25 | PVQLVESGGGLVQAGGSLRLSCAASGFIFYLYAMGWYRQAPGKERELVASINVSGASTRYADSVKGRFTISRDNSKNTVYLQMKSLKPEDTAVYYCAAAITELYFEAYYYWGQGTQVTVSS | low polyreactivity
26 | QVQLVESGGCLVQAGGSLRLSCAASGITFESNAMGWYRQAPGIEREFVAAISYDGGDTYYADSVKGRFTISRDNAKNTVYLEMTSLKTEDTAVFYCAAEPGWTMDYWGQGTQVTVSS | low polyreactivity
27 | QVQLQESGGGLVLAGGSLRLSCAASGSISAQAYMGWDRQAPGKEREHVAGINYGDNTNYADSVKGRFTISRDNEHRVSADEQPETGRYRVVLLRGFLELFYYYIYWGQGTQVTVSS | high polyreactivity
28 | QVQLVESAGGLVQAGGRLSLSCAASGRTYKKYAMGWYRPEPGKERELVAAITGSGGSTYYADSVKGRFTISRDNAKNTVYLQMNSLKPEDTAVYYCAAYAYGVWDSQDGGNYWGLGTQVTVSS | low polyreactivity
29 | QVQLVESGGGLVQAGGRLRLSCAASGTIFYWNAMVWYRQATGKERELVAAINSGDSTNYADSVKGRFTISRDNAKNTVYFQMYSLKPEDTAVYYCAASIYAALNGGPGYDYWGQGTQVTVSS | low polyreactivity
30 | QVQLVESGGGLVQAGGSLRLSCAASGRTFRPYPMGWYRQAPGKERELVAAITRSGGSTYYADSVKGRFTISRDNAKNTVYLQMNSLKPEDTAVYYCAAYNTYSDTYDYWGQGTQVTVSS | low polyreactivity
31 | QVQLVESGGGLVQAGGSLRLSCAATGSIFPPYGMGWYRRAPGKERELVAVITRSGGSTYYADSVKGRFTISRDNAKNTVYLQMNSLKPEDTAVYYCNVDSTTTFVYVVVSVVYEYDYWGQGTQVTVSS | low polyreactivity
32 | QVQLVESGGGLVQAGGSLRLSCAASGRIFLLYLMGWYRQAPGKERELVADITFSGGSTYYADSVKGRFTISRDNEKHTVYLQMNSLKPEDTAVYYCAARLFAAKYRYGYWGQGTQVTVSS | high polyreactivity
33 | QVQLVESGGGLVQAGGSLRLSCAASGRTFPYNAMGWYRQAPGKEMELVAAITKSAGRTYYAYSVKGRFTISRDNAKNTVYLQMNSLKPEDTAVYYCNTVTVAYGYTRLYAQYYYWGQGTQVTVSS | high polyreactivity
34 | QVQLVESGGGLVQAGGSLRLSCAASGRTFYRNTMGWYRQAPGKERELVAAITSSGGSTYYADSVKGRFTISRDNAKNTVYLQMNSLKPEDTAVYYCAAPTWQKVVNPGGYYWGQGTQVTVSS | high polyreactivity
35 | QVQLVESGGGLVQAGGSLRLSCASSGSTVSVNAMGWSRQAPGKESEFVASISKRGGSTYYADSVKGRFTISRDNAKNTVYLQMNSLKPEDTAVYYCARVLTGPGRLDYWGQGTQVTVSS | high polyreactivity
36 | QVQLVESGGGLVQAGGSLRLSCAASGRIFIRNAMGWYRQAPGKEREFVAAISYGGSTYYADSVKGRFTISRDNAKNTVYLQMNSLKPEDTAVYYCAARVLPYLTPRRQMYYWGQGTQVTVSS | low polyreactivity
37 | QVQLVESGGGLVQAGGSLRLSCAASGRIFGSYAMVWYRQVPGKERELVAASNWRGGSTFYADSVKGRFTISRDIAKNTVFLQMNSLKPDDNAVYYCSRRVYPQSCDNWGQGTQLTVSS | low polyreactivity
38 | QVQLVESGGGLVQAGGSLRLSCAASGSTFDVYARGGYRQAPGKERELVAAITSGGTTNYADSVKGRFTLSRDNAKNTVYLQMNSLKPEDTAVYYCAKDSRNVYWDYGYWGQGTQVTVSS | low polyreactivity
39 | QVQLVDSGGGLVQAGGSLRLSCAASGRTFAYNDMGWYRQAPGKERELVAAISWSDGTTYYADSVKWRFTISRDNAKNTVYLQMNRLKPEDTAVYYCAAVSIYWGQGTQVTVSS | low polyreactivity
40 | QVQLVESGGGLVQAGGSLRLSCAASGSIFDHNAMGWYRQAPGKEREFVAAISSSGGSTYYADSVKGRFTISRDKAKNTVYLQMNSLKPEDTAVYYCAAFPDRYVEHGYWGQGTQVTVSS | low polyreactivity
41 | QVQLVESGGGLVQAGGSLRLSCAASGRIFATNAMGWYRQAPGKERELVATITRSAGRTYYADSVKGRFTISRDTAKNTVYLQMNSLKPEDTAVYYCAASYWDTEPGYREYDYWGQGTQVTVSS | low polyreactivity
42 | QVQLVESGGGLVQAGGSLRLRGAASGGIISSYVLGWYRQAPGKERELVAAISRSGGSTYYADSVKGRFTISRDNAKNTVNLQMNSLKPEDTAVYYCAAVLQTRYNYWGQGTQVTVSS | high polyreactivity
43 | QVQLVESGGGLVQAGGSLSLSCAASGSIFYNYAMGWYRQAPGKEREFVAAISWSGDTTYYADSVKGRFTISRDNAKNTVYLQMNSLKPEDTAVYYCNADIYASEYYYWGQGTQVTVSS | low polyreactivity
